From patent US20200148757A1 (KOREA ADVANCED INSTITUTE OF SCIENCE AND TECHNOLOGY, published 2020)

Key:
[1] = target: T1, Cetuximab-VEGF-Grab; assay: BLI (BLItz), biotinylated P1GF on streptavidin biosensor, 1:1 model
T1 construct: Made in Freestyle293F cells and purified on Protein A; also called Cet-Grab; scFv-Cetuximab-VEGF-Grab
Procedure: (§1) Thereafter, to measure the dissociation rate (koff), each reaction product was allowed to react in a PBS buffer for 2 minutes. The final dissociation constant was calculated as a ratio of koff/kon. Sensorgrams were analyzed with the global fitting function using a 1:1 binding model (grouped by color and Rmax).

[2] = target: T1, Cetuximab-VEGF-Grab; assay: BLI; EGFR ECD pre-bound to Cet-Grab, then P1GF (reverse order); EGFR ECD pre-bound to Cet-Grab
[3] = target: T1, Cetuximab-VEGF-Grab; assay: BLI (BLItz), biotinylated VEGF-A on streptavidin biosensor, 1:1 model
Procedure: as §1

[4] = target: T1, Cetuximab-VEGF-Grab; assay: BLI; EGFR ECD pre-bound to Cet-Grab, then VEGF-A (reverse order); EGFR ECD pre-bound to Cet-Grab

Kd [1] [nM]	Kd [2] [nM]	Kd [3] [nM]	Kd [4] [nM]	Binder
1.59	1.11			human P1GF (ligand, also called PlGF; placental growth factor) LPAVPPQQWALSAGNGSSEVEVVPFQEVWGRSYCRALERLVDVVSEYPSEVEHMFSPSCVSLLRCTGCCGDENLHCVPVETANVTMQLLKIRSGDRPSYVELTFSQHVRCECRPLREKMKPERCGDAVPRR
		1.04	1.17	human VEGF-A (ligand, also called hVEGF-A) APMAEGGGQNHHEVVKFMDVYQRSYCHPIETLVDIFQEYPDEIEYIFKPSCVPLMRCGGCCNDEGLECVPTEESNITMQIMRIKPHQGQHIGEMSFLQHNKCECRPKKDRARQENPCGPCSERRKHLFVQDPQTCKCSCKNTDSRCKARQLELNERTCRCDKPRR
